Values quoted from earlier work, collected in publication PMC4340714.

Molecular target: Mst2 kinase domain (Homo sapiens) (UniProt Q13188)
UniProt Q13188, sequence (Q13188 27-278): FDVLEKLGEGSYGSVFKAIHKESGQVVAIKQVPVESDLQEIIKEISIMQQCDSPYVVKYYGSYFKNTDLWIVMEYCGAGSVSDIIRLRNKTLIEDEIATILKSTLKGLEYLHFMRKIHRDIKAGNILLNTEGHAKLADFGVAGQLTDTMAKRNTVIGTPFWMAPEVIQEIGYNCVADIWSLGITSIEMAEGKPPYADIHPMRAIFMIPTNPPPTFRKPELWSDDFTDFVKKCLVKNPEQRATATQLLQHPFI

Mst1 kinase domain (from UniProt Q13043)
Kd: 36 µM
